The target of assay [1] is Cry1Ab toxin of Bacillus thuringiensis subsp. berliner 1715 (trypsin-activated) (Bacillus thuringiensis subsp. berliner 1715) (UniProt P0A370). In words: native gel or EMSA.
In assay [2] the target is Fluorescently labeled EC12 probe (EC12 A36C/Y44W conjugated with Alexa-488) (Manduca sexta). Description: native gel or EMSA.

In the case of “EC12_(SQ/AA) (alanine substitution of the serine-glutamine dipeptide in EC12) (domain or fragment)”, in assay [1], the decrease of the capacity to compete with the EC12 probe, against EC12WT was 50%.

In assay [2], “Cry1Ab toxin of Bacillus thuringiensis subsp. berliner 1715 (trypsin-activated) (from UniProt P0A370 1-1155) (natural protein)” returned a Kd of 0.0195 µM.
